The values that follow are results of earlier work, collected in publication PMC2947981.

Values joined by “and” are separate entries in the source; they are usually repeats but may differ in a detail not shown here. Equal values may be shown once. Read-outs that look alike come from different tables or passages of the source.

Series [1] concerns the target Factor VIIIa2 A2 (Homo sapiens) (UniProt P00451).
Series [2] concerns the target Corn trypsin inhibitor (CTI) (Zea mays) (UniProt P01088).
For series [3], the target named is Thrombin (IIa) (Homo sapiens) (UniProt P00734).
Series [4] has as its target Factor Va (Homo sapiens) (UniProt P12259).
Sequence of UniProt P12259 (P12259 29-737, chain 1 of 2): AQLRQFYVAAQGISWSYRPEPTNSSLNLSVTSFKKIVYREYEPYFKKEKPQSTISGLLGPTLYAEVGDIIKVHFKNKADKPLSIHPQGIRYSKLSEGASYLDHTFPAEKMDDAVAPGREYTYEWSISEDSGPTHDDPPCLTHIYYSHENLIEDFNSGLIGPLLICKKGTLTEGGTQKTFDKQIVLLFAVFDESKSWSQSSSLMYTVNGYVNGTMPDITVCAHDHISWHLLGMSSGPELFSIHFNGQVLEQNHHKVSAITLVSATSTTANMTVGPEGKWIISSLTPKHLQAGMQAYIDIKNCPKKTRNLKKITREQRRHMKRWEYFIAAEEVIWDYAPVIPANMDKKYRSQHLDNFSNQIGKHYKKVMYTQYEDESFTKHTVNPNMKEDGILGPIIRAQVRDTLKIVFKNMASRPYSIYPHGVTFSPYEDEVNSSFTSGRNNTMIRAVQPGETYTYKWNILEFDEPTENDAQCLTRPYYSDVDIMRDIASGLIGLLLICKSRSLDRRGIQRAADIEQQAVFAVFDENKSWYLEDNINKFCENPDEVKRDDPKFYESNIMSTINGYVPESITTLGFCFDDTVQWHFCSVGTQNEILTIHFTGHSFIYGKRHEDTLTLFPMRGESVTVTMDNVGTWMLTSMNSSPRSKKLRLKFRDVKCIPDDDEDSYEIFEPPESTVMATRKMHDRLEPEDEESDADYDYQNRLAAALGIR
Sequence of UniProt P12259 (P12259 1574-2224, chain 2 of 2): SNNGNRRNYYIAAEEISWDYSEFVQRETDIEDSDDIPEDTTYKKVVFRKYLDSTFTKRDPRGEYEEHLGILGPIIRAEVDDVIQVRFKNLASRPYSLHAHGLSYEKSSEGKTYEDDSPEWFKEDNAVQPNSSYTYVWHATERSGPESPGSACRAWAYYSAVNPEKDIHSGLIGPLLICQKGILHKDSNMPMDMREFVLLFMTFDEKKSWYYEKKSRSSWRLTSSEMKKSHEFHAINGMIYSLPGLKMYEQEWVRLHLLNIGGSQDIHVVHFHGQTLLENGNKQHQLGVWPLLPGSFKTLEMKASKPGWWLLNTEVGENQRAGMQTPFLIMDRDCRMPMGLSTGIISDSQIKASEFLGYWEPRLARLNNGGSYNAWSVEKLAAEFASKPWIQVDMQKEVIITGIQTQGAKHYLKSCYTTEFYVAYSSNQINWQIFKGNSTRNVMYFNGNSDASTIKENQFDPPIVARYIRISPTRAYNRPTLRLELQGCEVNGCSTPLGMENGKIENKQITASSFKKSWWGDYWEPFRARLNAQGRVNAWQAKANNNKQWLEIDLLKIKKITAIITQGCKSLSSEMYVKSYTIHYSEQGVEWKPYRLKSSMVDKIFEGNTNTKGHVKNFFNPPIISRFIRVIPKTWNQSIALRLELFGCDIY
Series [5] deals with TFPI (Homo sapiens) (UniProt P10646).
Sequence of UniProt P10646 (P10646 29-304): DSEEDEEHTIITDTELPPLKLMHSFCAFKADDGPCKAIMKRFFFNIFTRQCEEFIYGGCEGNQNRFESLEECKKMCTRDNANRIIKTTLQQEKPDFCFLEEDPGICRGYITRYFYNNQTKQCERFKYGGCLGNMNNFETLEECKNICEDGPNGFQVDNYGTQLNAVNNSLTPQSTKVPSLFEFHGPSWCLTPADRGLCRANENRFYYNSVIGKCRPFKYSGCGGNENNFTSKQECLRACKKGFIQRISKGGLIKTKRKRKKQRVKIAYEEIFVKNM
Series [6] deals with Factor Va (Homo sapiens) (UniProt P12259). This is another data set of the same source.
Series [7] deals with TFPI (Homo sapiens) (UniProt P10646). The source holds these as a separate data set.
The target is the same in series [8]. The source holds these as a separate data set.
The target of series [9] is Factor VIIIa A2 A2 (Homo sapiens) (UniProt P00451).
Series [10] addresses Factor VIIIa (Homo sapiens) (UniProt P00451).
The target is the same in series [11]. The source holds these as a separate data set.
For series [12] the target is unchanged. The source holds these as a separate data set.
For series [13] the target is unchanged. This is another data set of the same source.
The target in series [14] is Factor VIIa (Homo sapiens) (UniProt P08709).
Sequence of UniProt P08709 (P08709 61-212, chain 1 of 2): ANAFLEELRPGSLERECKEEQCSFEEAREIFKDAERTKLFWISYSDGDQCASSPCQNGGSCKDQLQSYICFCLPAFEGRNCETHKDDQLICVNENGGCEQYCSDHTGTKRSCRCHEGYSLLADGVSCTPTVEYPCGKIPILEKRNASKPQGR
Sequence of UniProt P08709 (P08709 213-466, chain 2 of 2): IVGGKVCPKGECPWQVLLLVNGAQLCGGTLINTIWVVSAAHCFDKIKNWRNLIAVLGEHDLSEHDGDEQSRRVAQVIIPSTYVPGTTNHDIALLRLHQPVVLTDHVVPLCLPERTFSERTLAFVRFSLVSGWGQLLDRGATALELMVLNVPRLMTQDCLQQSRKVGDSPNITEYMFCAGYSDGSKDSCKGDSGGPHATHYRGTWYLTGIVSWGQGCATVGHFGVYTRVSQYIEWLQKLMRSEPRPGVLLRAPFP
The target in series [15] is TFPI (Homo sapiens) (UniProt P10646). The source holds these as a separate data set.
Series [16] deals with Factor Xa (Homo sapiens) (UniProt P00742).
Series [17] concerns the target Factor IXa (Homo sapiens) (UniProt P00740).
Series [18] has the same target. The source holds these as a separate data set.
Series [19] shares this target. This is another data set of the same source.

Sequence of Factor VIIIa (P00451 1668-2351): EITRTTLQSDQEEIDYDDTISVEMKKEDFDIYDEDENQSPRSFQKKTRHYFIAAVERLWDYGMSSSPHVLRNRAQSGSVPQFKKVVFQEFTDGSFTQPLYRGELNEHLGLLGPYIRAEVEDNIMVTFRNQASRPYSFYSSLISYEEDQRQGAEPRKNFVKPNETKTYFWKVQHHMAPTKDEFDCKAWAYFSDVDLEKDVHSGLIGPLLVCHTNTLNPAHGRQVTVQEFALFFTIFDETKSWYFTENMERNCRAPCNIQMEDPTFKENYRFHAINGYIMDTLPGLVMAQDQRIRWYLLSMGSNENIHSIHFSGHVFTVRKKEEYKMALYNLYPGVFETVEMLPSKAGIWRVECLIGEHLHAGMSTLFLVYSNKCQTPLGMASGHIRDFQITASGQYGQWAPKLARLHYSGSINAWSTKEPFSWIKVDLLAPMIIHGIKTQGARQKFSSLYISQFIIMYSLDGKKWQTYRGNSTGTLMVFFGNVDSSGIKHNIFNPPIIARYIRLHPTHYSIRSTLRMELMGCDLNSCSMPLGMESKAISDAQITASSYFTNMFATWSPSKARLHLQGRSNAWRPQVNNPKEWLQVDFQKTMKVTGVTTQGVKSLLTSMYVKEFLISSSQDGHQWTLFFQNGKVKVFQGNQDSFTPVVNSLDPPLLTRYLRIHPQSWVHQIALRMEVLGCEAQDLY
Sequence of UniProt P01088 (P01088 29-138): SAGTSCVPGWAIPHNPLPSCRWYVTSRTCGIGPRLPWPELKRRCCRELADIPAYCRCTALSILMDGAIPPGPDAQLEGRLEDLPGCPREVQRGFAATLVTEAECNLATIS

For the substance “Factor VIIIa1-L A1-L (from UniProt P00451)”, in series [1], the Kd is 270 nM. With Factor XIIa (from UniProt P00748), in series [2], the Ki is 24 nM.

As for Fibrin II (Fbn2) (from UniProt P02671), in [3], the Kd is 10000 nM. Take Factor Xa (from UniProt P00742): the equilibrium dissociation constant (Kd) in series [4] was 0.03 nM; in series [6], 3.3 nM and 0.5 nM; in series [8] it was 0.4 nM. In addition, the figures for the Ki in [5] and in series [7] were 0.0652 nM and 0.0852 nM, respectively. For the substance “Factor VIIIa A1/A3-C1-C2 A1/A3-C1-C2 (from UniProt P00451)”, the Kd in [9] is 260 nM. In the case of Factor IXa (from UniProt P00740), the Kd in series [10] was 351 nM; in series [11], 4 nM; in series [12], 0.55 nM; in series [13] it was 0.074 nM. Turning to GP1bα (from UniProt P07359), the Kd in series [14] is 20 nM. Regarding “TF-VIIa-Xa complex (from UniProt P13726)”, the Kd in series [15] is 0.00034 nM. For the substance TF-VIIa complex (from UniProt P13726), the Kd in series [16] was 860 nM. Take Factor VIIIa (from UniProt P00451): the Kd in series [17] is 4 nM; in series [18], 0.55 nM; in [19] it was 0.074 nM.

What is called Kd is the constant that tells how readily two partners part at equilibrium. Broadly, the Ki is the dissociation constant of the complex between target and ligand, obtained from inhibition or displacement.
